From patent publication US20040223972A1 (FUNCTIONAL GENETICS, published 2004)

Target: biotinylated peptide Bio-…

B1: purified TSG101 protein that contains only the UEV domain, Q99816 1-145 (protein)
chain: MAVSESQLKKMVSKYKYRDLTVRETVNVITLYKDLKPVLDSYVFNDGSSRELMNLTGTIPVPYRGNTYNIPICLWLLDTYPYNPPICFVKPTSSMTIKTGKHVDANGKIYLPYLHEWKHPQSDLLGLIQVMIVVFGDEPPVFSRP
  Kd: 2 µM
